The source of these data is publication PMC6163367.

Assay [1] deals with integrin α5β1 (mouse (endogenous in mouse synovial cells)) (UniProt P11688). Briefly: flow cytometry on cells; mouse synovial cells first incubated with anti-αvβ3, anti-α5β1 or both blocking antibodies for half an hour at 4 °C, washed, then 75 uM HM-3-Fc for 1 h at 4 °C; FITC-protein A as probe.
The target in assay [2] is integrin αvβ3 (mouse (endogenous in mouse synovial cells)) (UniProt P43406). The assay is described as above.
UniProt P43406, sequence (P43406 31-1044, chain 1 of 2): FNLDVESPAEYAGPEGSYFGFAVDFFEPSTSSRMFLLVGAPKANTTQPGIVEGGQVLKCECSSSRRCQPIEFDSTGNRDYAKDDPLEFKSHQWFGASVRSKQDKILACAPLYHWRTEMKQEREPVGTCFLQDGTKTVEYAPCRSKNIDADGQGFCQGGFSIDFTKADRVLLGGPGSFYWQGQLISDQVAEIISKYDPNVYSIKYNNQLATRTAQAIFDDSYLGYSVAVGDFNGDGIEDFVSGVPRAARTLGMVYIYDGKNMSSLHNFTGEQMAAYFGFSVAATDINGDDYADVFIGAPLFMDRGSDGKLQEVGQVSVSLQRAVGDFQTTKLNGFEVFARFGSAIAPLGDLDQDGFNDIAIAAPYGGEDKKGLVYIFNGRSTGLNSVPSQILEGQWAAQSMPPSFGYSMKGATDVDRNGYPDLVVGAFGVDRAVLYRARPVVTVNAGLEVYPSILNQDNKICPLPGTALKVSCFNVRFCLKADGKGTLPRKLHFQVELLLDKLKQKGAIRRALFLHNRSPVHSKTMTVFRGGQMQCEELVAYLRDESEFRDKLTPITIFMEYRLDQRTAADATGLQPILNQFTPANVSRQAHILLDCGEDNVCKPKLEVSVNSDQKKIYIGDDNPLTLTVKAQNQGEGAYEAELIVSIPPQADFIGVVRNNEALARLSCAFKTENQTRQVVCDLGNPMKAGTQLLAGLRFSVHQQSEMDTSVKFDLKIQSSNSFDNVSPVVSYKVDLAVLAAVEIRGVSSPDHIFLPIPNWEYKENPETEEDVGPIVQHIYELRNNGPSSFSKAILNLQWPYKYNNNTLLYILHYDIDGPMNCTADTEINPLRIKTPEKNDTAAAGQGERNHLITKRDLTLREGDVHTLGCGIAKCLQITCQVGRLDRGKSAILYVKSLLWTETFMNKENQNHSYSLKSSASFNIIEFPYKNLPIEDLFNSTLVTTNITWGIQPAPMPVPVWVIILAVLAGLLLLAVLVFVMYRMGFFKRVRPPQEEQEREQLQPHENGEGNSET
UniProt P43406, sequence (O54890 26-787, chain 2 of 2, further chain): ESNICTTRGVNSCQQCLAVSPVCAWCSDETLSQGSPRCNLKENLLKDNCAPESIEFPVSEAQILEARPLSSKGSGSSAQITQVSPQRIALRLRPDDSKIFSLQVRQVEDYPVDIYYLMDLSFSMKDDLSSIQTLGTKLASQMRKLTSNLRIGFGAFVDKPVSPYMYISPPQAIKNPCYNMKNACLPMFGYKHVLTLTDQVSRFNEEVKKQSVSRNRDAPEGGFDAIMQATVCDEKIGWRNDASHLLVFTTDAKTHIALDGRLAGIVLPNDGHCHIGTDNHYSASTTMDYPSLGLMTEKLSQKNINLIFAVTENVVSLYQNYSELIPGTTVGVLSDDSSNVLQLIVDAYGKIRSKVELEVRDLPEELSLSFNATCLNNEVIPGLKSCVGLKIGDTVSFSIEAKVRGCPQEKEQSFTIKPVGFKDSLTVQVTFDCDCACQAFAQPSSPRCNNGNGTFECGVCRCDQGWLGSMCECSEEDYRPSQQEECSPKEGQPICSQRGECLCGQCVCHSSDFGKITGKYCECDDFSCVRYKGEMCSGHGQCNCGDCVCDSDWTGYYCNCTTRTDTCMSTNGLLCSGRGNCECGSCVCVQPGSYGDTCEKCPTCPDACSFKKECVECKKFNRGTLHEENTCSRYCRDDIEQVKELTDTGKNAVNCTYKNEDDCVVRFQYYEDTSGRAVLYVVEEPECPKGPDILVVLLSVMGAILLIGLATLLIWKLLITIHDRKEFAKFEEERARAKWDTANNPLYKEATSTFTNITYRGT
Assay [3] concerns the target integrin α5β1 (mouse (endogenous in mouse synovial cells)) (UniProt P11688). Briefly: flow cytometry on cells; mouse synovial cells blocked with 1% BSA, incubated with 1, 10 or 75 uM HM-3-Fc for 1 h at 4 °C, no blocking antibody; FITC-protein A as probe for the Fc part.
Assay [4] concerns the target integrin αvβ3 (mouse (endogenous in mouse synovial cells)) (UniProt P43406). The description is as above.

UniProt P11688, sequence (P11688 45-1053, chain 1 of 2): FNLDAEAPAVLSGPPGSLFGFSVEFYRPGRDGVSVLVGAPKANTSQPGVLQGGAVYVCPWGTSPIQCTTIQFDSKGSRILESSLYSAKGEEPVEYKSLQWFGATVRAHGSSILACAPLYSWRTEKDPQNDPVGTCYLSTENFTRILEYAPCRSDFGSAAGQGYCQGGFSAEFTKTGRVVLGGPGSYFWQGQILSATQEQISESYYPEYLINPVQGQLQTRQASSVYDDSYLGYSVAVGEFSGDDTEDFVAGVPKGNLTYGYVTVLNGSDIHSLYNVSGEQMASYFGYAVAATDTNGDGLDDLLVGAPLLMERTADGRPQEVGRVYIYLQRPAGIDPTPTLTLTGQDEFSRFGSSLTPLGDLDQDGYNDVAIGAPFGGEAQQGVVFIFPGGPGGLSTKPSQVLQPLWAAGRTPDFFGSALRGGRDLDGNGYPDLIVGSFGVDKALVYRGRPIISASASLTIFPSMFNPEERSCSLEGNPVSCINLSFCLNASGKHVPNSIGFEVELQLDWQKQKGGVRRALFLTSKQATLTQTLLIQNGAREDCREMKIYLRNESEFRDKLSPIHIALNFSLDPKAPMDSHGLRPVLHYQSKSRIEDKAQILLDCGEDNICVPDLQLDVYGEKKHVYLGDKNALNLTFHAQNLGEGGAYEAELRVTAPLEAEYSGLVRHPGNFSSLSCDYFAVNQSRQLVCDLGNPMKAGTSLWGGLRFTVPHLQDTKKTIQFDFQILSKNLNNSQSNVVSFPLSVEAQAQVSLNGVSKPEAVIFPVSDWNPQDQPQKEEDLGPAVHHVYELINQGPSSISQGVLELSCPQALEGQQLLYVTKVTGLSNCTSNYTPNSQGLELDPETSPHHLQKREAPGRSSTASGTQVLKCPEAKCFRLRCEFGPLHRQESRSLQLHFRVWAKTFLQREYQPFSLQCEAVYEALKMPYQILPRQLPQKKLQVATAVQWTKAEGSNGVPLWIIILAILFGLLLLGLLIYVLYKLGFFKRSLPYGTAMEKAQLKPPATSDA
UniProt P11688, sequence (P09055 21-798, chain 2 of 2, further chain): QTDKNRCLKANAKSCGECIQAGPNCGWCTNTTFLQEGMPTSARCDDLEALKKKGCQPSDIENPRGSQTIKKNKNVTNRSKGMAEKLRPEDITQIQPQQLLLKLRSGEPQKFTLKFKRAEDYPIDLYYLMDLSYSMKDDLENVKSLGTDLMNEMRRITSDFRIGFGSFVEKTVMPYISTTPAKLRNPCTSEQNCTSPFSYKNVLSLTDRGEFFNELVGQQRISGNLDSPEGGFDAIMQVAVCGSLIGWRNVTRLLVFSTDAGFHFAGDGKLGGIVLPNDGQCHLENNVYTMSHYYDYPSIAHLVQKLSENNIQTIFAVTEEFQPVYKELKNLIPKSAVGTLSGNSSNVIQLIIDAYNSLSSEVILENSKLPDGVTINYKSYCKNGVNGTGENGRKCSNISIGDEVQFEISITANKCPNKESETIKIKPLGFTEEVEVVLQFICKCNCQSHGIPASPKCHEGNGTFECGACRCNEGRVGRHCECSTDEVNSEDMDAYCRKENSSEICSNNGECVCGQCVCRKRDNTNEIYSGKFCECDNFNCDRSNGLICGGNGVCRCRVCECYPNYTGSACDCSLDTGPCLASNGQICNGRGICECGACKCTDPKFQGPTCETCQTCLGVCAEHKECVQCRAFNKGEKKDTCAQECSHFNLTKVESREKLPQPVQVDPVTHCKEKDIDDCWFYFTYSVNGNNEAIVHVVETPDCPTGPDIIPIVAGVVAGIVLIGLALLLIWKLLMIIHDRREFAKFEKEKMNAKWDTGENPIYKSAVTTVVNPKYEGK

On to HM-3-Fc fusion protein, for which, in assay [1], the binding rate (percent of cells positive) at 75 umol/L after block of αvβ3 and α5β1 together came out at 0.01%; the binding rate (percent of cells positive) at 75 umol/L after block with an anti-α5β1 antibody turned out to be 11.2%. In assay [2], this substance displayed a binding rate (percent of cells positive) at 75 umol/L after block of αvβ3 and α5β1 together of 0.01%; a binding rate (percent of cells positive) at 75 umol/L after block with an anti-αvβ3 antibody of 1.4%. In assay [3], this substance registered a binding rate (percent of cells positive) at 75 umol/L, unblocked cells that carry both integrins of 70.7%. Besides, the binding rate (percent of cells positive) at 75 umol/L, unblocked cells that carry both integrins in assay [4] was found to be 70.7%.
